Assay results taken from patent US20090149377, “METHODS FOR REGULATION OF p53 TRANSLATION AND FUNCTION” (ST. JUDE CHILDREN'S RESEARCH HOSPITAL, published 2009).

Target: RPL26 (Homo sapiens, UniProt P61254 SEQ:1-145)
Assay: EMSA; supershift with anti-penta His; 1.5 mM Mg acetate, 90 mM K acetate, 30 C

B1: p53 5'UTR (-191 to 2) (ssRNA)
RNA: GGUUUUCCCCUCCCAUGUGCUCAAGACUGGCGCUAAAAGUUUUGAGCUUCUCAAAAGUCUAGAGCCACCGUCCAGGGAGCAGGUAGCUGCUGGGCUCCGGGGACACUUUGCGUUCGGGCUGGGAGCGUGCUUUCCACGACGGUGACACGCUUCCCUGGAUUGGCAGCCAGACUGCCUUCCGGGUCACUGCCAU
Does B1 bind?
Result: binds
